Measured values from PMC10576089, “Integrative solution structure of PTBP1-IRES complex reveals strong compaction and ordering with residual conformational flexibility”.

Columns and labels:
PTBP1 (hnRNP I) = PTBP1 (hnRNP I) (UniProt P26599-1 1-531, C250S;C251S); assay: NMR; SAXS/SANS; CLIR-MS/MS; integrative structure; ensemble in Zenodo 10.5281/zenodo.7798970; NMR/SANS: 10 mM NaPO4 pH 6.5, 20 mM NaCl, 1-2 mM DTT; protein NMR at 313/323 K, imino spectra 278-293 K; DEER 1:1 d8-glycerol at 50 K; SAS 23 C; conditions: protein: recombinant; stem-loops D, E and F with single-stranded linkers
PTBP1 RRM1 = PTBP1 RRM1 (UniProt P26599-1 41-163); assay: NMR (intermolecular NOEs); binding register confirmed; NMR/SANS: 10 mM NaPO4 pH 6.5, 20 mM NaCl, 1-2 mM DTT; protein NMR at 313/323 K, imino spectra 278-293 K; DEER 1:1 d8-glycerol at 50 K; SAS 23 C; conditions: protein: recombinant; hairpin
Sequence of PTBP1 RRM1 (P26599 41-163): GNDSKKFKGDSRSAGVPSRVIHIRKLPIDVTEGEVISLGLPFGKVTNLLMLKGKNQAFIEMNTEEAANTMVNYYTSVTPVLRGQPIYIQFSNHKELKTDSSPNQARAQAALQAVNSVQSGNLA

Sequence of PTBP1 (hnRNP I) (P26599 other isoform, or with tags, fused parts or gaps C250S;C251S): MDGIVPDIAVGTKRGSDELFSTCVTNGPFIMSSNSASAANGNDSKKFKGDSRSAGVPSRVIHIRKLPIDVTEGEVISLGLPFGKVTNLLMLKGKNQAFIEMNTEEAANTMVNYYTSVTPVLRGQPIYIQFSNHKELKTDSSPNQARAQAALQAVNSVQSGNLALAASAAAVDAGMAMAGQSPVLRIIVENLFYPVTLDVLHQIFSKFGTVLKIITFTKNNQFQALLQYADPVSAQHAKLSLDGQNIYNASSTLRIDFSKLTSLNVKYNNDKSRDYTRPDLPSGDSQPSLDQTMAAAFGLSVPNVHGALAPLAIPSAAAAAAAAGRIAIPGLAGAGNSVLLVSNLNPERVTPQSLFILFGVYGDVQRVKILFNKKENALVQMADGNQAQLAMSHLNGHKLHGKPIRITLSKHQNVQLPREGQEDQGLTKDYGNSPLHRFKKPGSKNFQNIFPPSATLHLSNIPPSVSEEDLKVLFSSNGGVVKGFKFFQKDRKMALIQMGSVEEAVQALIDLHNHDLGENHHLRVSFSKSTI

B1: EMCV-IRES-DtoF (structured_RNA)
RNA: UACUGGCCGAAGCCGCUUGGAAUAAGGCCGGUGUGCGUUUGUCUAUAUGUUAUUUUCCACCAUAUUGCCGUCUUUUGGCAAUGUG
- binding result (PTBP1 (hnRNP I)): binds

Binder: GGAGCGUUUGUCUAUAUGUUCC (structured_RNA) [SLE]
- binding result (PTBP1 RRM1): binds
